Measurements taken from PMC6769641.

How the values were obtained:
[1] = biological target: catalase from sweet pepper (Capsicum annuum L.) fruits (Capsicum annuum (endogenous in sweet pepper fruits)) (UniProt Q9M5L6); assay: SEC; FPLC gel filtration on Superose 12 in 50 mM Tris-HCl, pH 8.0; ammonium sulfate fraction (20-80%) of green pepper fruit extract; catalase activity followed in fractions; column calibrated with rubisco, ferritin, aldolase, phosphorylase b and myoglobin
[2] = biological target: catalase from sweet pepper (Capsicum annuum L.) fruits (Capsicum annuum (endogenous in sweet pepper fruits)) (UniProt Q9M5L6); assay: native gel or EMSA; Hedrick and Smith method: non-denaturing PAGE at 5-7% acrylamide, catalase activity staining in gels; BSA monomer, dimer, trimer and tetramer as molecular weight standards

stoichiometry N [1]: 2
stoichiometry N [2]: 2
Substance: catalase from sweet pepper (Capsicum annuum L.) fruits (from UniProt Q9M5L6 1-492) (enzyme)
